The source of these data is US20140271651A1 (AbbVie / Abbott, published 2014).

In the experiment the target is T1, Aleuria aurantia lectin (Aleuria aurantia, UniProt P18891 2-313).
T1 construct: also called AAL; free AAL
T1 sequence (looked up): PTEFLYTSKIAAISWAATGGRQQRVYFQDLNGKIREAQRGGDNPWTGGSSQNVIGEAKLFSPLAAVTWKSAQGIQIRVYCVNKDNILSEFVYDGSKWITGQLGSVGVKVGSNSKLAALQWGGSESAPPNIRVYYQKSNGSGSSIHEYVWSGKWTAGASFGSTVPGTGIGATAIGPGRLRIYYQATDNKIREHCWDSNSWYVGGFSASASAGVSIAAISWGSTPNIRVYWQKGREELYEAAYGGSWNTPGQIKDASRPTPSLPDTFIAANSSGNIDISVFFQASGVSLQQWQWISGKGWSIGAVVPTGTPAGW
Nature of the experiment: EIA, GP73-hFc captured on donkey anti-human IgG Fc, biotin AAL pre-mixed with free fucose. The method, then:
The biotin labeled anti-GP73 mAbs were tested to determine if they were sensitive to the presence of fucose on the GP73-hFc antigen by EIA. Aleuria Aurantia Lectin (AAL) (Vector Laboratories) binds fucose with a high degree of specificity. Donkey anti-human IgG Fc (Jackson Immunoresearch) was coated on 96 well micro titer EIA plates at approximately 1 μg/mL. After the capture reagent was coated on the solid phase, the capture reagent was removed and the plates were blocked for 30 min using Protein-Free T20 (TBS) Blocking Buffer (Thermo Scientific). The wells were washed with distilled water. A 200 ng/mL solution of GP73-hFc antigen was added to the blocked plates and allowed to incubate at room temperature for at least 45 min then washed with distilled water. Fucose was added to the wells of a separate non-absorbing microtiter plate in serial dilutions starting from 1000 μg/mL Biotin labeled anti-GP73 mAbs were added to the plates at predetermined concentrations for each mAb ranging from 50 to 2000 ng/mL and incubated for 45 min at room temperature. The mixture was added to the microtiter plates with the captured GP73-hFc and allowed to incubate for 15-20 min at room temperature. Biotin labeled AAL was used as a positive control for the assay and a biotin labeled irrelevant mAb was used as the negative control. […] Plates were read at 492 nm and the results were analyzed.

B1: GP73-hFc (human GP73 amino acids 63 to 400 fused at the C-terminus to human IgG1 Fc) (Fc fusion)
chain: ELKKNEFQGELEKQREQLDKIQSSHNFQLESVNKLYQDEKAVLVNNITTGERLIRVLQDQLKTLQRNYGRLQQDVLQFQKNQTNLERKFSYDLSQCINQMKEVKEQCEERIEEVTKKGNEAVASRDLSENNDQRQQLQALSEPQPRLQAAGLPHTEVPQGKGNVLGNSKSQTPAPSSEVVLDSKRQVEKEETNEIQVVNEEPQRDRLPQEPGREQVVEDRPVGGRGFGGAGELGQTPQVQAALSVSQENPEMEGPERDQLVIPDGQEEEQEAAGEGRNQQKLRGEDDYNMDENEAESETDKQAALAGNDRNIDVFNVEDQKRDTINLLDQREKRNHTLRSVECPPCPAPPVAGPSVFLFPPKPKDTLMISRTPEVTCVVVDVSHEDPEVQFNWYVDGMEVHNAKTKPREEQFASTFRVVSVLTVVHQDWLNGKEYKCKVSNKGLPAPIEKTISKTKGQPREPQVYTLPPSREEMTKNQVSLTCLVKGFYPSDIAVEWESNGQPENNYKTTPPMLDSDGSFFLYSKLTVDKSRWQQGNVFSCSVMHEALHNHYTQKSLSLSPGK
notes: Expressed in HEK293F, CHO or HepG2 cells; the host is named under assay; also called HEK expressed GP73-hFc; CHO expressed GP73-hFc
As to B1, the binding result is “binds”.
